In PMC12947862, “Oligomerization enables the selective targeting of an intrinsically disordered region by a small molecule” (Science Advances, 2026):
Blank lines part the entries; values can stand above or below the molecule they belong to.

Tests used:
EPI-001 [1] = assay: intact MS; details: t = 24 hours (last time point); parent: est. 21; read off a plot
EPI-001 [2] = assay: 1H NMR chemical shift perturbation of EPI-001; details: 1 molar equivalent of the corresponding Tau-5* mutant; parent: est. -0.018; read off a plot
[3] = target: the molecule itself; assay: dynamic light scattering; NR ADs in 20 mM sodium phosphate pH 7.4, 1 mM TCEP, 0.5% DMSO-d6, 5°C; percentage population of monomer and high-order species; 35 μM AR AD; with and without EPI-001
Cys123 (position 123, …) = assay: NMR; details: 5 °C, 20 mM sodium phosphate, no added salt stated, 3 mM TCEP, 0.05% (w/v) NaN3, Reduced free thiol, intrinsically disordered fragments, no ligand. Protein concentrations were 70 μM Nt C123, 300 μM Tau-5* C404 and 150 μM Ct C518.
Cys518 = assay: NMR; details: 5 °C, 20 mM sodium phosphate, no added salt stated, 3 mM TCEP, 0.05% (w/v) NaN3, Reduced free thiol, intrinsically disordered fragments, no ligand. Protein concentrations were 70 μM Nt C123, 300 μM Tau-5* C404 and 150 μM Ct C518.
[4] = target: Cys404 (UniProt position 406, …); assay: NMR; details: 5 °C, 20 mM sodium phosphate, no added salt stated, 3 mM TCEP, 0.05% (w/v) NaN3, Reduced free thiol, intrinsically disordered fragments, no ligand. Protein concentrations were 70 μM Nt C123, 300 μM Tau-5* C404 and 150 μM Ct C518.

Molecule: AR AD fragment transactivation unit 5 (Tau-5*; residues 330 to 448) (from UniProt P10275) noAro
- response (EPI-001 [2]): -0.003 p.p.m.

B1: estrogen receptor alpha activation domain (ERα AD) (domain or fragment, human (from the printed UniProt entry), UniProt P03372 1-184, looked up)
chain: MTMTLHTKASGMALLHQIQGNELEPLNRPQLKIPLERPLGEVYLDSSKPAVYNYPEGAAYEFNAAAAANAQVYGQTGLPYGPGSEAAAFGSNGLGGFPPLNSVSPSPLMLLHPPPQLSPFLQPHGQQVPYYLENEPSGYTVREAGPPAFYRPNSDNRRQGGRERLASTNDKGSMAMESAKETRY
notes: source: E. coli Rosetta (DE3), purified from inclusion bodies (HisTrap in urea, SEC); not shown: His tag, N-terminal, cleaved
- binding result [3]: binds

B2: mineralocorticoid receptor activation domain (MR AD) (domain or fragment, human (from the printed UniProt entry), UniProt P08235 1-602, looked up)
chain: METKGYHSLPEGLDMERRWGQVSQAVERSSLGPTERTDENNYMEIVNVSCVSGAIPNNSTQGSSKEKQELLPCLQQDNNRPGILTSDIKTELESKELSATVAESMGLYMDSVRDADYSYEQQNQQGSMSPAKIYQNVEQLVKFYKGNGHRPSTLSCVNTPLRSFMSDSGSSVNGGVMRAVVKSPIMCHEKSPSVCSPLNMTSSVCSPAGINSVSSTTASFGSFPVHSPITQGTPLTCSPNVENRGSRSHSPAHASNVGSPLSSPLSSMKSSISSPPSHCSVKSPVSSPNNVTLRSSVSSPANINNSRCSVSSPSNTNNRSTLSSPAASTVGSICSPVNNAFSYTASGTSAGSSTLRDVVPSPDTQEKGAQEVPFPKTEEVESAISNGVTGQLNIVQYIKPEPDGAFSSSCLGGNSKINSDSSFSVPIKQESTKHSCSGTSFKGNPTVNPFPFMDGSYFSFMDDKDYYSLSGILGPPVPGFDGNCEGSGFPVGIKQEPDDGSYYPEASIPSSAIVGVNSGGQSFHYRIGAQGTISLSRSARDQSFQHLSSFPPVNTLVESWKSHGDLSSRRSDGYPVLEYIPENVSSSTLRSVSTGSSRPSKI
notes: as for B1
- binding result [3]: binds

B3: Androgen receptor activation domain fragment Nt C123 (residues 1-151, C129S) (Homo sapiens; C129S) (protein)
chain: MEVQLGLGRVYPRPPSKTYRGAFQNLFQSVREVIQNPGPRHPEAASAAPPGASLLLLQQQQQQQQQQQQQQQQQQQQQETSPRQQQQQQGEDGSPQAHRRGPTGYLVLDEEQQPSQPQSALECHPERGSVPEPGAAVAASKGLPQQLPAPP
- pKa (Cys123 (position 123, …)): 8.86 ± 0.03

B4: Androgen receptor activation domain fragment Ct C518 (residues 441-558, 4G polyG, C448 deleted) (Homo sapiens; del448;del451-470) (protein)
chain: EGQLYGPGGGGEAGAVAPYGYTRPPQGLAGQESDFTAPDVWYPGGMVSRVPYPSPTCVKSEMGPWMDSYSGPYGDMRLETARDHVLPIDYYFPPQKT
- pKa (Cys518): 8.20 ± 0.08

B5: glucocorticoid receptor activation domain (GR AD) (domain or fragment, human (from the printed UniProt entry), UniProt P04150 1-420, looked up)
chain: MDSKESLTPGREENPSSVLAQERGDVMDFYKTLRGGATVKVSASSPSLAVASQSDSKQRRLLVDFPKGSVSNAQQPDLSKAVSLSMGLYMGETETKVMGNDLGFPQQGQISLSSGETDLKLLEESIANLNRSTSVPENPKSSASTAVSAAPTEKEFPKTHSDVSSEQQHLKGQTGTNGGNVKLYTTDQSTFDILQDLEFSSGSPGKETNESPWRSDLLIDENCLLSPLAGEDDSFLLEGNSNEDCKPLILPDTKPKIKDNGDLVLSSPSNVTLPQVKTEKEDFIELCTPGVIKQEKLGTVYCQASFPGANIIGNKMSAISVHGVSTSGGQMYHYDMNTASLSQQQDQKPIFNVIPPIPVGSENWNRCQGSGDDNLTSLGTLNFPGRTVFSNGYSSPSMRPDVSSPPSSSSTATTGPPPKL
notes: as for B1
- binding result [3]: binds

B6: progesterone receptor activation domain (PR AD) (domain or fragment, human (from the printed UniProt entry), UniProt P06401 1-566, looked up)
chain: MTELKAKGPRAPHVAGGPPSPEVGSPLLCRPAAGPFPGSQTSDTLPEVSAIPISLDGLLFPRPCQGQDPSDEKTQDQQSLSDVEGAYSRAEATRGAGGSSSSPPEKDSGLLDSVLDTLLAPSGPGQSQPSPPACEVTSSWCLFGPELPEDPPAAPATQRVLSPLMSRSGCKVGDSSGTAAAHKVLPRGLSPARQLLLPASESPHWSGAPVKPSPQAAAVEVEEEDGSESEESAGPLLKGKPRALGGAAAGGGAAAVPPGAAAGGVALVPKEDSRFSAPRVALVEQDAPMAPGRSPLATTVMDFIHVPILPLNHALLAARTRQLLEDESYDGGAGAASAFAPPRSSPCASSTPVAVGDFPDCAYPPDAEPKDDAYPLYSDFQPPALKIKEEEEGAEASARSPRSYLVAGANPAAFPDFPLGPPPPLPPRATPSRPGEAAVTAAPASASVSSASSSGSTLECILYKAEGAPPQQGPFAPPPCKAPGASGCLLPRDGLPSTSASAAAAGAAPALYPALGLNGLPQLGYQAAVLKEGLPQVYPPYLNYLRPDSEASQSPQYSFESLPQKI
notes: as for B1
- binding result [3]: binds

B7: Androgen receptor activation domain fragment Tau-5* C404 (residues 330-447, C448 deleted) (Homo sapiens; del448) (protein)
chain: AAGSSGTLELPSTLSLYKSGALDEAAAYQSRDYYNFPLALAGPPPPPPPPHPHARIKLENPLDYGSAWAAAAAQCRYGDLASLHGAGAAGPGSGSPSAAASSSWHTLFTAEEGQLYGP
- pKa [4]: 8.95 ± 0.05

Further lines, results first:

- other: EPI-001 adduct (%) (EPI-001 [1]): 11%
- response (EPI-001 [2]): -0.012 p.p.m.
Molecule: AR AD fragment transactivation unit 5 (Tau-5*; residues 330 to 448) (from UniProt P10275) A398P

- response (EPI-001 [2]): -0.021 p.p.m.
Molecule: AR AD fragment transactivation unit 5 (Tau-5*; residues 330 to 448) (from UniProt P10275) C404Y

- other: EPI-001 adduct (%) (EPI-001 [1]): 26%
- response (EPI-001 [2]): -0.042 p.p.m.
Molecule: AR AD fragment transactivation unit 5 (Tau-5*; residues 330 to 448) (from UniProt P10275) G394A; S395A; G407A

- response (EPI-001 [2]): -0.024 p.p.m.
Molecule: AR AD fragment transactivation unit 5 (Tau-5*; residues 330 to 448) (from UniProt P10275) G407A

- response (EPI-001 [2]): -0.013 p.p.m.
Molecule: AR AD fragment transactivation unit 5 (Tau-5*; residues 330 to 448) (from UniProt P10275) L436P

- other: EPI-001 adduct (%) (EPI-001 [1]): 9.3%
- response (EPI-001 [2]): -0.008 p.p.m.
Molecule: AR AD fragment transactivation unit 5 (Tau-5*; residues 330 to 448) (from UniProt P10275) W433A; H434A; F437A

- other: EPI-001 adduct (%) (EPI-001 [1]): 2.5%
- response (EPI-001 [2]): -0.006 p.p.m.
Molecule: AR AD fragment transactivation unit 5 (Tau-5*; residues 330 to 448) (from UniProt P10275) Y393S; W397A; Y406S; H413A
